The values that follow come from patent US20190161551A1 (Regeneron, published 2019).

The target of experiment [1] is T1, rat TrkB extracellular domain expressed with a C-terminal myc-myc-hexahistidine tag (rat, UniProt Q63604 32-429).
T1 construct: also called rTrkB.mmH; rTRKB.mmH
The experiment in a line: blocking ELISA: constant rat TrkB.mmh (REGN1808) pre-mixed with antibody, binding to plate-coated BDNF; half-maximal enhancement of the signal, not blockade. The method, then: Experiments were carried out using the following procedure. Human BDNF was coated at a concentration of 0.5 μg/mL (for blocking mouse TrkB.hFc interaction) or 0.3 μg/mL (for blocking rat TrkB.mmh interaction) in PBS on 96-well microtiter plate and incubated overnight at 4° C. […] In a 96-well dilution plate, 850 pM mouse TrkB.hFc or rat TrkB.mmh was mixed with the three-fold serially diluted anti-mouse TrkB antibodies and control antibody. The final antibody concentrations ranged from 1.69 pM to 100 nM. The protein-antibody mix was incubated at room temperature (RT) for 1 hour. The pre-bound mix was then transferred in duplicates to microtiter plates coated with BDNF. […] Plate-bound mouse TrkB.hFc was detected with HRP-conjugated goat anti-human Fcγ fragment specific antibody (Jackson Immunoresearch) and rat TrkB.mmh was detected with HRP-conjugated anti-histidine antibody (Qiagen). […]
The absorbance at 450 nm for each well was recorded and plotted as a function of the concentration of antibody. Data was analyzed in GraphPad Prism software using a four-parameter logistic equation over an 11-point dose response curve and IC₅₀ values were calculated. […] Percent blockade at maximum concentration of the antibody tested was calculated as an indicator of the ability of the antibodies to block the binding of TrkB to BDNF on the plate relative to the baseline of the assay. […]

The target of experiment [2] is T2, human TrkB extracellular domain expressed with a C-terminal myc-myc-hexahistidine tag (human, UniProt Q16620 32-430).
T2 construct: also called hTrkB.mmH; hTRKB.mmH
T2 sequence (Q16620 other isoform, or with tags, fused parts or gaps): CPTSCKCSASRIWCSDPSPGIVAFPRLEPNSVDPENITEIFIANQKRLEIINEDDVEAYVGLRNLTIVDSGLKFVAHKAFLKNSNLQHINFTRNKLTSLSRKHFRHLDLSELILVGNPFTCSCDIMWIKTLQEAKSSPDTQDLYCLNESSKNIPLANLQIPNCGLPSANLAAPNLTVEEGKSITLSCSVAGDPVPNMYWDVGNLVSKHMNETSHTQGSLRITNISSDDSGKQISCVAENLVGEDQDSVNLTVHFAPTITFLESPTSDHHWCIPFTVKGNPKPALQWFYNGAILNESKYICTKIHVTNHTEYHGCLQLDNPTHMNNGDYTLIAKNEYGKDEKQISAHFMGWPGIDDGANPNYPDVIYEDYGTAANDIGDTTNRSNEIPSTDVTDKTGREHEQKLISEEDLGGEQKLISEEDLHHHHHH
The experiment in a line: SPR, mAb captured (anti-mFc), 25C. On the procedure:
(§1) Equilibrium dissociation constants (KD values) for TrkB binding to purified anti-TrkB monoclonal antibodies were determined using a real-time surface plasmon resonance biosensor using a Biacore 4000 instrument. All binding studies were performed in 10 mM Hepes pH 7.4, 150 mM NaCl, 3 mM EDTA, and 0.05% v/v Surfactant Tween-20 (HBS-ET running buffer) at 25° C. and 37° C. […] Binding studies were performed on following TrkB reagents; human TrkB extracellular domain expressed with a C-terminal myc-myc-hexahistidine tag (hTRKB.mmH; SEQ ID NO: 76; Accession number NP_001018074.1), mouse TrkB extracellular domain expressed with a C-terminal myc-myc-hexahistidine tag (mTRKB.mmH; SEQ ID NO: 79; Accession number NP_001020245), rat TrkB extracellular domain expressed with a C-terminal myc-myc-hexahistidine tag (rTRKB.mmH; SEQ ID NO: 84; Accession number NP_036863.1), and human TrkB extracellular domain expressed with a C-terminal mouse IgG2a Fc tag (hTrkB-mFc; SEQ ID NO: 77; Accession number NP_001018074.1). […] Kinetic association (kₐ) and dissociation (kd) rate constants were determined by fitting the real-time binding sensorgrams to a 1:1 binding model with mass transport limitation using Scrubber 2.0c curve-fitting software. Binding dissociation equilibrium constants (KD) and dissociative half-lives (t½) were calculated from the kinetic rate constants as: […]

For experiment [3], the target named is T3, mouse TrkB extracellular domain expressed with a C-terminal myc-myc-hexahistidine tag (mouse, UniProt P15209 32-429).
T3 construct: also called mTrkB.mmH; mTRKB.mmH
T3 sequence (P15209 other isoform, or with tags, fused parts or gaps): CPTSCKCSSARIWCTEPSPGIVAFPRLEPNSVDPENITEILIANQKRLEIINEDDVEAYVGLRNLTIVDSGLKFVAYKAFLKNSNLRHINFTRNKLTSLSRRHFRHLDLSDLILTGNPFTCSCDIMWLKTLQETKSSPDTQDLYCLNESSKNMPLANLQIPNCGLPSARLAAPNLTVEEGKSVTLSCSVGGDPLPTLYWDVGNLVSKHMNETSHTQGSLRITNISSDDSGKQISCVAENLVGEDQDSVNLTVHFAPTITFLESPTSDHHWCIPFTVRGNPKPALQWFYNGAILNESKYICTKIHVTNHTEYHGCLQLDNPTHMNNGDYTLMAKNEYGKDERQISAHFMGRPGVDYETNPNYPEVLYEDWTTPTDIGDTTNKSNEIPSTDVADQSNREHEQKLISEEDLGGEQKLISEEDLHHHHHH
The experiment in a line: SPR, mAb captured (anti-mFc), 25C. On the procedure:
as §1

T1 sequence (Q63604 other isoform, or with tags, fused parts or gaps): as the sequence (P15209 other isoform, or with tags, fused parts or gaps) above, with T3M, S9T, A10T, V32I, R63K, S84G, M153T, L185I, S394T counted along it

B1: M2aM14179N (antibody, mouse IgG2a, kappa, V domains shown)
VH: EVQLQQSGPELVKPGASVKISCKASGYTLTDYYMNWVKQSHGKSLEWIGDINPNNGGTSYNQKFKGKATLTVDKSSSTAYMELRSLTSEDSAVYYCARGAYYSNYFDYWGQGTTLTVSS
VL: DIVMSQSPSSLAVSAGEKVTMSCKSSQSLLNSRTRKNYLAWYQQKPGQSPKLLIYWASTRESGVPDRFTGSGSGTDFTLTISSVQAEDLAVYYCKQSYILFTFGSGTQLEIKR
notes: Anti-mouse TrkB antibody from hybridoma, mouse IgG2a Fc; also called surrogate anti-mouse TrkB antibody
Take B1: the “EC50 (read off the curve)” value in experiment [1] was roughly 0.4 nM.

B2: H1M8037C (antibody, mouse IgG1, kappa, V domains shown)
VH: QVQLVQSGAEVKKPGASVKVSCKASGYTFTNYDIIWVRQAPGQGLEWMGYINPYNDGTKYNEKFKGRVTMTRDTSTSTVYMELSSLRSEDTAVYYCARLLKYRRFRYYAIDYWGQGTTVTVSS
VL: DIQMTQSPSSLSASVGDRVTITCRTSENVYSNLAWYQQKPGKAPKLLIYAASNLQSGVPSRFSGSGSGTDYTFTISSLQPEDIATYYCQHFWGSPFTFGQGTKLEIKR
notes: captured by anti-mFc in SPR; also called Comparator; comparator anti-TrkB monoclonal antibody
As to B2, in experiment [2], the affinity, expressed as Kd, was 41.3 nM; the koff amounted to 0.00192 s⁻¹; the association rate constant (kon) was 46500 M⁻¹ s⁻¹; the “t½” value amounted to 6 min. Further, in experiment [3], the affinity, expressed as Kd, was 40.8 nM; the koff stood at 0.00168 s⁻¹; the kon was determined as 41200 M⁻¹ s⁻¹; the “t½” value was determined as 7 min.
